The values below come from article PMC12543377, “https://orcid.org/0000-0003-0166-1786 Gustavsson Emil Data curation Formal analysis Investigation Methodology Project administration Validation Visualization Writing - original draft Writing - review”.

Series [1] deals with the molecule itself. The series can be described thus: cryo-EM structure; OBP + mini-OriS*, dimer-dimer assembly dataset; same reconstitution; lower resolution; dimers to dimer-dimer assembly.
Series [2] has as its target T1, OBP (UL9 origin-binding protein), dimer-dimer assembly (Herpes simplex virus 1, UniProt D3YPE9 1-851). The series can be described thus: cryo-EM; two dimers with putatively two mini-OriS* copies; 20 mM HEPES pH 7.8, 150 mM NaCl, 5 mM MgCl2, 2 mM DTT, 5% glycerol; 2 uM OBP, protein:DNA 1:1.2, 37 C 30 min, then vitrified. Conditions: protein: recombinant; (StrepTrap purification; tag not described); chain copies: 4; hairpin with 3' single-stranded tail.

Series [3] has as its target OBP (UL9 origin-binding protein), monomer (Herpes simplex virus 1, UniProt D3YPE9 1-851). The series can be described thus: cryo-EM; monomer; preferred orientation, DNA path needs validation; 20 mM HEPES pH 7.8, 150 mM NaCl, 5 mM MgCl2, 2 mM DTT, 5% glycerol; 2 uM OBP, protein:DNA 1:1.2, 37 C 30 min, then vitrified. As to conditions: protein: recombinant; (StrepTrap purification; tag not described); hairpin with 3' single-stranded tail.

In series [4] the target is T1, OBP (UL9 origin-binding protein), …. The series can be described thus: cryo-EM (2D classes); two dimers, each apparently on two antiparallel OriS helices (Box 1 and Box 2); low frequency; 20 mM HEPES pH 7.8, 150 mM NaCl, 5 mM MgCl2, 2 mM DTT, 5% glycerol; 2 uM OBP, protein:DNA 1:1.2, 37 C 30 min, then vitrified. As to conditions: protein: recombinant; (StrepTrap purification; tag not described); chain copies: 4.

The target of series [5] is T2, OBP (UL9 origin-binding protein), dimer (Herpes simplex virus 1, UniProt D3YPE9 1-851). The series can be described thus: cryo-EM; ATPgS, Mg2+; one dimer at Box 1; 20 mM HEPES pH 7.8, 150 mM NaCl, 5 mM MgCl2, 2 mM DTT, 5% glycerol; 2 uM OBP, protein:DNA 1:1.2, 37 C 30 min, then vitrified. Conditions: protein: recombinant; (StrepTrap purification; tag not described); chain copies: 2.

For series [6], the target named is T2, OBP (UL9 origin-binding protein), dimer. The series can be described thus: cryo-EM; no nucleotide; 5 mM MgCl2; one dimer at Box 1; 20 mM HEPES pH 7.8, 150 mM NaCl, 5 mM MgCl2, 2 mM DTT, 5% glycerol; 2 uM OBP, protein:DNA 1:1.2, 37 C 30 min, then vitrified. As to conditions: protein: recombinant; (StrepTrap purification; tag not described); chain copies: 2.

B1: HSV-1 origin-binding protein (OBP), encoded by the UL9 gene (enzyme)
chain: MPFVGGAESGDPLGAGRPIGDDECEQYTSSVSLARMLYGGDLAEWVPRVHPKTTIERQQHGPVTFPNASAPTARCVTVVRAPMGSGKTTALIRWLREAIHSPDTSVLVVSCRRSFTQTLATRFAESGLVDFVTYFSSTNYIMNDRPFHRLIVQVESLHRVGPNLLNNYDVLVLDEVMSTLGQLYSPTMQQLGRVDALMLRLLRICPRIIAMDATANAQLVDFLCGLRGEKNVHVVVGEYAMPGFSARRCLFLPRLGTELLQAALRPPGPPSGPSPDASPEARGATFFGELEARLGGGDNICIFSSTVSFAEIVARFCRQFTDRVLLLHSLTPLGDVTTWGQYRVVIYTTVVTVGLSFDPLHFDGMFAYVKPMNYGPDMVSVYQSLGRVRTLRKGELLIYMDGSGARSEPVFTPMLLNHVVSSCGQWPAQFSQVTNLLCRRFKGRCDASACDTSLGRGSRIYNKFRYKHYFERCTLACLSDSLNILHMLLTLNCIRVRFWGHDDTLTPKDFCLFLRGVHFDALRAQRDLRELRCRDPEASLPAQAAETEEVGLFVEKYLRSDVAPAEIVALMRNLNSLMGRTRFIYLALLEACLRVPMATRSSAIFRRIYDHYATGVIPTINVTGELELVALPPTLNVTPVWELLCLCSTMAARLHWDSAAGGSGRTFGPDDVLDLLTPHYDRYMQLVFELGHCNVTDGLLLSEEAVKRVADALSGCPPRGSVSETDHAVALFKIIWGELFGVQMAKSTQTFPGAGRVKNLTKQTIVGLLDAHHIDHSACRTHRQLYALLMAHKREFAGARFKLRVPAWGRCLRTHSSSANPNADIILEAALSELPTEAWPMMQGAVNFSTL
notes: No viral strain is named; Tag removal is not mentioned; also called monomer A; monomer B; source: ExpiSf9 cells (recombinant baculovirus), purified (StrepTrap HP, eluted with desthiobiotin)
For the molecule B1, the stoichiometry N (in general, a count of units in the complex or per binding partner) in series [1] is 4.

As to AAAAGAAGTGAGAACGCGAAGCGTTCGCACTTCGTTTTTTTTTT (structured_DNA) [mini-OriS*], the binding result in series [2] and in series [3] was “binds” in each case.

B2: OriS (dsDNA)
DNA 1: AAAAGAAGTGAGAACGCGAAGCGTTCGCACTTCGTCCCAATATATATATATTATTAGGGCGAAGTGCGAGCACTGGCGCC
DNA 2: GGCGCCAGTGCTCGCACTTCGCCCTAATAATATATATATATTGGGACGAAGTGCGAACGCTTCGCGTTCTCACTTCTTTT
As to B2, the binding result in series [4] and in series [5] was “binds” each time.

B3: OriS-6AT (dsDNA)
DNA 1: AAAAGAAGTGAGAACGCGAAGCGTTCGCACTTCGTCCCAATATATTATTAGGGCGAAGTGCGAGCACTGGCGCC
DNA 2: GGCGCCAGTGCTCGCACTTCGCCCTAATAATATATTGGGACGAAGTGCGAACGCTTCGCGTTCTCACTTCTTTT
B3: the binding result in series [6] is on record as “binds”.
